Source: patent US20080280313

Key:
[1] = molecular target: T1, CKI phosphopeptide substrate KRRRALS(p)VASLPGL (New England Biolabs)
T1 chain: KRRRALSVASLPGL

[2] = molecular target: T2, kemptide LRRASLG (Promega)
T2 chain: LRRASLG

[3] = molecular target: T3, CaM kinase II substrate (281-291) MHKNETVECLK (Calbiochem)
T3 chain: MHKNETVECLK

[4] = molecular target: T4, CKI substrate peptide RRKDLHDDEEDEAMSITA (Calbiochem)
T4 chain: RRKDLHDDEEDEAMSITA

[5] = molecular target: T5, partially dephosphorylated α-casein (Sigma), P02662
T5 chain: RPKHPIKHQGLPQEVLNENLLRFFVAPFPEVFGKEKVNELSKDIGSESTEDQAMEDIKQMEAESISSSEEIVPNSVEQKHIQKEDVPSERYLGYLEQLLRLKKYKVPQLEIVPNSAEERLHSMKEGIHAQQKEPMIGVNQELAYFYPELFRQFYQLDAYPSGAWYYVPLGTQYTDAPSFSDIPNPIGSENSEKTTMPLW

[6] = molecular target: T6, CKII substrate RRADDSDDDDD (Calbiochem)
T6 chain: RRADDSDDDDD

[7] = molecular target: T7, Syntide-2 substrate PLARTLSVAGLPGKK (Calbiochem)
T7 chain: PLARTLSVAGLPGKK

[8] = molecular target: T8, CKII substrate RRREEETEEE (New England Biolabs)
T8 chain: RRREEETEEE

β-casein (Sigma), P02666 = molecular target: T9, β-casein (Sigma), P02666
T9 chain: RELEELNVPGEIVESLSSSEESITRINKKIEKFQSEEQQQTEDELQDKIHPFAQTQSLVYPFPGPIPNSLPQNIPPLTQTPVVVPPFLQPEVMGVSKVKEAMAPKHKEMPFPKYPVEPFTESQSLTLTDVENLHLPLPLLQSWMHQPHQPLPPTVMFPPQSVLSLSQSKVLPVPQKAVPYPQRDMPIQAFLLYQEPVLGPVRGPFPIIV

[9] = molecular target: T10, CKI substrate DDDEESITRR (Promega)
T10 chain: DDDEESITRR

B1: native EtCKIα, partially purified from Eimeria tenella unsporulated oocysts (protein)
chain: MDVRVGGKYRLGRKIGSGSFGDIYLGTNISTGDEVAIKLESVRSRHPQLIYESKLYKILTGGIGIPTLYWYGIEGDYNVMIIELLGPSLEDLFSICNRKLSLKTVLMLADQMLNRIEFVHSRHFIHRDIKPDNFLIGRGKKMSIVFAIDFGLAKKYRDPRTQSHIPYREGKNLTGTARYASVNTHLGIEQSRRDDLEALGYVLMYFNRGSLPWQGLKATTKKDKYDKIMEKKMSTPIEVLCKQFPFEFITYLNYCRSLRFEDRPDYSYLRRLFKDLFFREGYQYDFIFDWTFLHAERERERQRRSMVNQGAESGNQWRRDASGRDPLGRLPQLEP
[1]
  Vmax relative to the α-casein substrate: the phosphopeptide yielded a much higher Vmax (2.5× greater activity) than the α-casein substrate

B2: FLAGTgCKIβ, N-terminal FLAG epitope tagged Toxoplasma gondii casein kinase I beta (protein)
chain: AHHQDTRNHTGVGPSSSIPLKDLKIAGVWKIGRKIGSGSFGDIYKGLNSQTGQEVALKVESTKAKHPQLLYEYKLLKHLQGGTGIAQVFCCETAGDHNIMAMELLGPSLEDVFNLCNRTFSLKTILLLADQFLQRVEYIHSKNFIHRDIKPDNFLLGGAGNQNTIYVIDFGLAKKFRDPKTHQHIPYRENKNLTGTARYASISAHLGSEQSRRDDLEAVGYVLMYFCRGGTLPWQGIKANTKQEKYHKIMEKKMSTPVEVLCKGYPSEFATYLHYCRSLRFEDRPDYAYLKRLFRDLYIKEGYDDSDREFDWTVKLSSRSLGPPSSRAQHVLLSQDTRTRGKRETDRPVAARSGDRERGIHFSNGNVGNPSMATNPGGLSVMVHERTSLVDQGDRGSRETSTRKEDAKDGRWPGGRFSCLPLLCRRSPTKA
[1]
  Km(app): 79 µM
  Vmax(app) (nmole min^-1 mg^-1): 37
[2]
  kinase activity with peptide substrate: failed to show concentration dependent kinase activity
[3]
  kinase activity with peptide substrate: failed to show concentration dependent kinase activity
[4]
  Km(app): 15 µM
  Vmax(app) (nmole min^-1 mg^-1): 8
[5]
  Km(app): 5 µM
  Vmax(app) (nmole min^-1 mg^-1): 12
[6]
  kinase activity with peptide substrate: failed to show concentration dependent kinase activity
[7]
  kinase activity with peptide substrate: failed to show concentration dependent kinase activity
[8]
  kinase activity with peptide substrate: failed to show concentration dependent kinase activity
β-casein (Sigma), P02666
  Km(app): 12 µM
  Vmax(app) (nmole min^-1 mg^-1): 16
[9]
  kinase activity with peptide substrate: failed to show concentration dependent kinase activity
